Data on 15 sequences can be found in the supplement of paper PMC9170038.

The test system of the data set is MS2 coat protein. Nature of the data set: apparent KD of MS2 coat protein; higher = weaker reporter binding. As to conditions: Eterna round: R107. How it is done:
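RNA-MaP round R107: designed RNA switches with theophylline, tryptophan, arginine or FMN aptamers are transcribed on-chip within common flanks. They are titrated with SNAP-549-labelled MS2 coat protein in RNA-MaP buffer (100 mM Tris pH 7.5, 80 mM KCl, 4 mM MgCl2), without ligand or with the indicated ligand. Median apparent KD per design.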

The mark [1] stands for this setting: input ligand: theophylline 20 uM.
[2] abbreviates: input ligand: tryptophan 2.4 mM.
[3] abbreviates: input ligand: theophylline 2 mM.

On to “ACAUGAGGAUCACCCAUGUCUGCCUCGGAUACCAGCGGAAGAAAACGCCCUUGGCAGCCGAACAUGAGGAUCACCCAUGUAGGCU [Same State Theophylline A GF30]”, for which the “apparent KD of MS2 coat protein” value was 28.8 nM (input ligand: arginine 13.2 mM), 55.1 nM under setting [1] and 45.2 nM under setting [2].

Take “ACAUGAGGAUCACCCAUGUGAAGGCACGAUACCAGCUGAUCCCGUGGCCCUUGGCAGCGUCCGGUGUGGUCCGGCGGGUGGGACG [bbvmullin]”: the “apparent KD of MS2 coat protein” value is 25.8 nM (input ligand: arginine 13.2 mM); 29 nM (input ligand: none); 75.4 nM under setting [1]; 50.3 nM under setting [3]; 24.4 nM under setting [2].

As to “ACAUGAGGAUCACCCAUGUUCCUCGCCGAUACCAGUGAAGAAGAACGCCCUUGGCAGCGGAAAGAAUAUUUUGGAGAUGAGGUAU [6.W]”, the “apparent KD of MS2 coat protein” value reads like this: (input ligand: arginine 13.2 mM) 120 nM; under setting [1], 219 nM; under setting [2], 165 nM.

As for “ACAUGAGGAUCACCCAUGUUCCUCGCCGAUACCAGUGAAGAAGAACGCCCUUGGCAGCGGAAAGAGUAUUUUGGAGAUGAGGUAC [6.X]”, the “apparent KD of MS2 coat protein” value was found to be 72.5 nM (input ligand: arginine 13.2 mM), 134 nM under setting [1] and 124 nM under setting [2].

For the sequence “ACAUGAGGGAUGGAUACCAGCGACAUGAGGAUCACCCAUGUAUGAGGAUCAGCCAUGUUAUGCCCUUGGCAGCCACGAACAUGAG [ACFMULLIN]”, the “apparent KD of MS2 coat protein” value by setting is: (input ligand: arginine 13.2 mM) 26.2 nM; (input ligand: none) 35.6 nM; under setting [1], 103 nM; under setting [3], 235 nM; under setting [2], 37.2 nM.

With “ACAUGGGUCUGAAGGAGCGCGAUAACAUGAGGAUCACCCAUGUAAAAUGGAACAUGAUAAUCGCAGGUAGGUCGCAGUAAAACCC [Same State Arginine B GF 11]”, the “apparent KD of MS2 coat protein” value stood at 133 nM (input ligand: arginine 13.2 mM); 303 nM (input ligand: none); 344 nM under setting [1]; 704 nM under setting [3]; 365 nM under setting [2].

As to “ACAUUUAACUGAAGGAGCGUGAAUAACAUGAGGAUCACCCAUGUAACUUAGAUGCUUAUUUCACAGGUAGGUCGCAGACUAAUGA [JR_ExcArginiB_Sub010]”, the “apparent KD of MS2 coat protein” value (input ligand: arginine 13.2 mM) was determined as 10.4 nM; the “apparent KD of MS2 coat protein” value (input ligand: none) stood at 10.3 nM; the “apparent KD of MS2 coat protein” value under setting [1] amounted to 13.7 nM; the “apparent KD of MS2 coat protein” value under setting [3] is 10.3 nM; the “apparent KD of MS2 coat protein” value under setting [2] worked out at 10.9 nM.

For the sequence “ACAUUUAACUGAAGGAGCGUGAAUAACAUGAGGAUCACCCAUGUAACUUAGAUUCUUAUAUCACAGGUAGGUCGCAGACUAAUGA [JR_ExcArginiB_Sub012]”, the “apparent KD of MS2 coat protein” value (input ligand: arginine 13.2 mM) came out at 24.9 nM; the “apparent KD of MS2 coat protein” value (input ligand: none) was found to be 17 nM; the “apparent KD of MS2 coat protein” value under setting [1] came to 25.7 nM; the “apparent KD of MS2 coat protein” value under setting [3] was 21.5 nM; the “apparent KD of MS2 coat protein” value under setting [2] worked out at 19 nM.

As for “ACAUUUAACUGAAGGAGCGUGAUAAACAUGAGGAUCACCCAUGUACCAAAGAUUUUCAGAUCACAGGUAGGUCGCAGACUAAUGA [JR_ExcArginiB_Sub015]”, the “apparent KD of MS2 coat protein” value came out at 12.8 nM (input ligand: arginine 13.2 mM); 11.7 nM (input ligand: none); 16.7 nM under setting [1]; 12.6 nM under setting [3]; 13.3 nM under setting [2].

Turning to “ACCGCAUCCGUAUAGGAUGCGGCCCAUGAAGGAGCGUGGGAAACCACAGGUAGGUCGCAUGACAUGAGGAUCACCCAUGUUUAUU [Matrix]”, the “apparent KD of MS2 coat protein” value is, setting by setting: (input ligand: arginine 13.2 mM) 27.8 nM; (input ligand: none) 44.2 nM; under setting [1], 52.7 nM; under setting [3], 40.9 nM; under setting [2], 33.9 nM.

Turning to “ACCGCAUCCGUAUAGGAUGCGGCCCAUGAAGGAGCGUGGGAAACCACAGGUAGGUCGCAUGGACAUGAGGAUCACCCAUGUUAUU [Inception]”, the “apparent KD of MS2 coat protein” value reads like this: (input ligand: arginine 13.2 mM) 43.7 nM; (input ligand: none) 59.8 nM; under setting [1], 79.3 nM; under setting [3], 62.7 nM; under setting [2], 48.3 nM.

For “ACGAACGCACCUGAGGAACACCCAGGUGAUACCAGCCUGGAAACAGGCCCUUGGCAGCACCUAAAAUAAAGGUAACGUUCGAAUA [TheoAX8 #MicroSwitchBubble #AlternativeMS2]”, the “apparent KD of MS2 coat protein” value (input ligand: arginine 13.2 mM) was found to be 171 nM; the “apparent KD of MS2 coat protein” value (input ligand: none) turned out to be 126 nM; the “apparent KD of MS2 coat protein” value under setting [1] was found to be 231 nM; the “apparent KD of MS2 coat protein” value under setting [3] stood at 180 nM; the “apparent KD of MS2 coat protein” value under setting [2] was determined as 98.9 nM.

Turning to “ACGACGCAUAGUGAUACCAGCACAACAUGAGGAUCACCCAUGUCACAUAUGUUGUAAUAAUGCCCUUGGCAGCACUAUGCGUCAG [SSTheo B #2]”, the “apparent KD of MS2 coat protein” value reads like this: (input ligand: arginine 13.2 mM) 34.6 nM; under setting [1], 83.3 nM; under setting [2], 50.8 nM.

Turning to “ACGGAUCGGAAACGAUCCGCGGCGCGGGUGCGAGGACCGGUACGGCCGCCACUCGGGUAACAUGAGGAUCACCCAUGUCCGAUUU [ETA NP+V+V2 #12]”, the “apparent KD of MS2 coat protein” value runs as follows: (input ligand: arginine 13.2 mM) 65.7 nM; under setting [1], 101 nM; under setting [3], 129 nM.

On to “ACGUCCGGAUUGAUCGUGGGCAUGGUCGAUACCAGUAUUUUAAUCUACCCUUGGCAGCGACAUGAGGAUCACCCAUGUGCGAUGA [XTheo A #19]”, for which the “apparent KD of MS2 coat protein” value runs as follows: (input ligand: arginine 13.2 mM) 16.1 nM; under setting [1], 21.5 nM; under setting [2], 16.2 nM.
